Data on one substance can be found in patent US20040138431A1.

Assay [1] concerns the target P75 and trkA receptors on rat PC-12 cell membranes (rat) (UniProt P35739). The experiment in a line: cell-based or functional assay.
Assay [2] has the same target. The experiment in a line: radioreceptor assay, competitive binding against NGF standard on rat PC-12 cell membranes.

P75 and trkA receptors on rat PC-12 cell membranes (rat), sequence (P35739 33-799, chain 1 of 2): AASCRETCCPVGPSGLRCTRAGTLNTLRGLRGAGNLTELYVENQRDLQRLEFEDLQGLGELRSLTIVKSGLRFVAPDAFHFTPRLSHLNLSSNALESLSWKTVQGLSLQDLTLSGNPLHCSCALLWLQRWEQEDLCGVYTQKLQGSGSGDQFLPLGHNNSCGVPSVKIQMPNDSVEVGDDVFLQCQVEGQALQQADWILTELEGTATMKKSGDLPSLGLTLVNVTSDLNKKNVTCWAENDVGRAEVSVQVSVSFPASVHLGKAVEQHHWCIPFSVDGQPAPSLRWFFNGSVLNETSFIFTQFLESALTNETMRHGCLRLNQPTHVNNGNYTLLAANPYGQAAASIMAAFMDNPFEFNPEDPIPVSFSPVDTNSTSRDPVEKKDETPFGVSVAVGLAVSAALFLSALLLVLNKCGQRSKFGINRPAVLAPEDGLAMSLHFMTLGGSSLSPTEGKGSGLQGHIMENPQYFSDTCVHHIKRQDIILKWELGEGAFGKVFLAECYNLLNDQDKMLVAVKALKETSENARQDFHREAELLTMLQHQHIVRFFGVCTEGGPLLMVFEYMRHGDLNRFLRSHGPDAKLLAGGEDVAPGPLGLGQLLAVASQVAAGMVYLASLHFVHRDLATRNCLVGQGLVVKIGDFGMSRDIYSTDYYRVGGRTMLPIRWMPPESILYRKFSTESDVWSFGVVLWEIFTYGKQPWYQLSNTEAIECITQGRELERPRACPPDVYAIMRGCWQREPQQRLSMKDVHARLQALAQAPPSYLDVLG
P75 and trkA receptors on rat PC-12 cell membranes (rat), sequence (P07174 30-425, chain 2 of 2, further chain): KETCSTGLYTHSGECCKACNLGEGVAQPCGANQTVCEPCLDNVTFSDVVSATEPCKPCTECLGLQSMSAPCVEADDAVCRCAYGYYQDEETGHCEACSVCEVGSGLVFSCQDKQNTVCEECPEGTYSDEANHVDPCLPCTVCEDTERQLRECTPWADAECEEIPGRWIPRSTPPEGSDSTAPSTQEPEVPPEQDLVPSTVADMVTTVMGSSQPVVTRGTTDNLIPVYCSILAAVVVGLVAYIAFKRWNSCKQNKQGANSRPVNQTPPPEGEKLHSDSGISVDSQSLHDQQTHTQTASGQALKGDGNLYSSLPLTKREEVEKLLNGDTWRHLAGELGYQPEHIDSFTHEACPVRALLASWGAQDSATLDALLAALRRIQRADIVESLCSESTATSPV
120/120 rhNGF homodimer (NGF-120, full-length 120/120 nerve growth factor), sequence (P01138 122-241 limits assumed): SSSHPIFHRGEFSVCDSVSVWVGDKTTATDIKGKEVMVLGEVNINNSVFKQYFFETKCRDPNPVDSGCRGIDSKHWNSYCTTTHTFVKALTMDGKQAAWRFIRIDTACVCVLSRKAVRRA

Substance “120/120 rhNGF homodimer (NGF-120, full-length 120/120 nerve growth factor) (from UniProt P01138 122-241) (ligand)” returned a PC-12 based assay, activity relative to the 118/118 form in assay [1] of 60%. This substance displayed a percent as active as the 118/118 species in assay [2] of 80 to 90%.
